Patent publication US20220401557A1 (Chugai, published 2022)
Where a chain is given by its changes, count along the chain named.

B1: rCE115/GLSuPA04//GCH065 (bispecific antibody, human IgG1, kappa, N297A)
heavy 1: EVQLVETGGSLVQPGKSLKLTCATSGFTFSNAWMHWVRQSPEKQLEWVAQIKAKSNNYATYYAESVKGRFTISRDDSKSNIYLQMNSLKEEDTAVYYCRYVHYGAYYGVDAWGQGTSVTVSSASTKGPSVFPLAPSSKSTSGGTAALGCLVKDYFPEPVTVSWNSGALTSGVHTFPAVLQSSGLYSLSSVVTVPSSSLGTQTYICNVNHKPSNTKVDKKVEPKSCDKTHTCPPCPAPELRGGPKVFLFPPKPKDTLMISRTPEVTCVVVDVSHEDPEVKFNWYVDGVEVHNAKTKPREEQYASTYRVVSVLTVLHQDWLNGKEYKCKVSNKALPAPIEKTISKAKGQPREPQVYTLPPSRKEMTKNQVSLTCLVKGFYPSDIAVEWESNGQPENNYKTTPPYLDSDGSFFLYSKLTVDKSRWQQGNVFSCSVMHEALHNHYTQKSLSLSP
light 1: QDGNEEMGGGSGGGSGGGSLSGRSDNHGGGSDIVMTQSPLSLPVTPGEPASISCRSSQSLVHSNRNTYLHWYQQKPGQAPRLLIYKVSNRFSGVPDRFSGSGSGTDFTLKISRVEAEDVGVYYCGQGTQVPYTFGQGTKLEIKRTVAAPSVFIFPPSDEQLKSGTASVVCLLNNFYPREAKVQWKVDNALQSGNSQESVTEQDSKDSTYSLSSTLTLSKADYEKHKVYACEVTHQGLSSPVTKSFNRGEC
heavy 2: QVQLVQSGAEVKKPGASVTVSCKASGYTFTDYEMHWIRQPPGEGLEWIGAIDGPTPDTAYSEKFKGRVTLTADKSTSTAYMELSSLTSEDTAVYYCTRFYSYTYWGQGTLVTVSSASTKGPSVFPLAPSSKSTSGGTAALGCLVKDYFPEPVTVSWNSGALTSGVHTFPAVLQSSGLYSLSSVVTVPSSSLGTQTYICNVNHKPSNTKVDKKVEPKSCDKTHTCPPCPAPELRGGPKVFLFPPKPKDTLMISRTPEVTCVVVDVSHEDPEVKFNWYVDGVEVHNAKTKPREEQYASTYRVVSVLTVLHQDWLNGKEYKCKVSNKALPAPIEKTISKAKGQPREPQVYTLPPSREEMTKNQVSLTCLVKGFYPSDIAVEWESNGQPENNYKTTPPYLDSDGSFFLYSKLTVDKSRWQQGNVFSCSVMHEALHNHYTQESLSLSP
light 2: DIVMTQSPLSLPVTPGEPASISCRSSQPLVHSNRNTYLHWYQQKPGQAPRLLIYKVSNRFSGVPDRFSGSGSGTDFTLKISRVEAEDVGVYYCGQGTQVPYTFGQGTKLEIKRTVAAPSVFIFPPSDEQLKSGTASVVCLLNNFYPREAKVQWKVDNALQSGNSQESVTEQDSKDSTYSLSSTLTLSKADYEKHKVYACEVTHQGLSSPVTKSFNRGEC
B2: hCE115HAuPA20/GLS//GCH065 (bispecific antibody, human IgG1, kappa, N297A)
heavy 1: QDGNEEMGGITQTPYKVSISLSGRSDNHGGGSQVQLVESGGGVVQPGRSLRLSCAASGFTFSNAWMHWVRQAPGKGLEWVAQIKAKSNNYATYYAESVKGRFTISRDDSKNSLYLQMNSLKTEDTAVYYCRYVHYGAYYGVDAWGQGTTVTVSSASTKGPSVFPLAPSSKSTSGGTAALGCLVKDYFPEPVTVSWNSGALTSGVHTFPAVLQSSGLYSLSSVVTVPSSSLGTQTYICNVNHKPSNTKVDKKVEPKSCDKTHTCPPCPAPELRGGPKVFLFPPKPKDTLMISRTPEVTCVVVDVSHEDPEVKFNWYVDGVEVHNAKTKPREEQYASTYRVVSVLTVLHQDWLNGKEYKCKVSNKALPAPIEKTISKAKGQPREPQVYTLPPSRKEMTKNQVSLTCLVKGFYPSDIAVEWESNGQPENNYKTTPPYLDSDGSFFLYSKLTVDKSRWQQGNVFSCSVMHEALHNHYTQKSLSLSP
light 1: B1 light 2 with P28S
heavy 2: B1 heavy 2
light 2: B1 light 2
B3: hCE115HAuPA04/GLS//GCH065 (bispecific antibody, human IgG1, kappa, N297A)
heavy 1: QDGNEEMGGGSGGGSGGGSLSGRSDNHGGGSQVQLVESGGGVVQPGRSLRLSCAASGFTFSNAWMHWVRQAPGKGLEWVAQIKAKSNNYATYYAESVKGRFTISRDDSKNSLYLQMNSLKTEDTAVYYCRYVHYGAYYGVDAWGQGTTVTVSSASTKGPSVFPLAPSSKSTSGGTAALGCLVKDYFPEPVTVSWNSGALTSGVHTFPAVLQSSGLYSLSSVVTVPSSSLGTQTYICNVNHKPSNTKVDKKVEPKSCDKTHTCPPCPAPELRGGPKVFLFPPKPKDTLMISRTPEVTCVVVDVSHEDPEVKFNWYVDGVEVHNAKTKPREEQYASTYRVVSVLTVLHQDWLNGKEYKCKVSNKALPAPIEKTISKAKGQPREPQVYTLPPSRKEMTKNQVSLTCLVKGFYPSDIAVEWESNGQPENNYKTTPPYLDSDGSFFLYSKLTVDKSRWQQGNVFSCSVMHEALHNHYTQKSLSLSP
light 1: B1 light 2 with P28S
heavy 2: B1 heavy 2
light 2: B1 light 2
B4: hCE115HAuPA20L/GLS//GCH065 (bispecific antibody, human IgG1, kappa, N297A)
heavy 1: QDGNEEMGGITQTPYKVSISGGGGSGGGGSGGGGSLSGRSDNHGGGSQVQLVESGGGVVQPGRSLRLSCAASGFTFSNAWMHWVRQAPGKGLEWVAQIKAKSNNYATYYAESVKGRFTISRDDSKNSLYLQMNSLKTEDTAVYYCRYVHYGAYYGVDAWGQGTTVTVSSASTKGPSVFPLAPSSKSTSGGTAALGCLVKDYFPEPVTVSWNSGALTSGVHTFPAVLQSSGLYSLSSVVTVPSSSLGTQTYICNVNHKPSNTKVDKKVEPKSCDKTHTCPPCPAPELRGGPKVFLFPPKPKDTLMISRTPEVTCVVVDVSHEDPEVKFNWYVDGVEVHNAKTKPREEQYASTYRVVSVLTVLHQDWLNGKEYKCKVSNKALPAPIEKTISKAKGQPREPQVYTLPPSRKEMTKNQVSLTCLVKGFYPSDIAVEWESNGQPENNYKTTPPYLDSDGSFFLYSKLTVDKSRWQQGNVFSCSVMHEALHNHYTQKSLSLSP
light 1: B1 light 2 with P28S
heavy 2: B1 heavy 2
light 2: B1 light 2
B5: rCE115/rCE115GS//GCH065 (bispecific antibody, human IgG1, kappa, N297A)
heavy 1: B1 heavy 1
light 1: QDGNEGGGSGGGSGGGSDVVMTQTPVSMSVSLGGQVSISCRSSQSLVHNNGNTYVSWYIQKPSQSPQLLIYKVSNRFSGISDRFSGSGSGTDFTLKISRVEPDDLGVYYCGQGTQDPYTFGAGTKLELKRTVAAPSVFIFPPSDEQLKSGTASVVCLLNNFYPREAKVQWKVDNALQSGNSQESVTEQDSKDSTYSLSSTLTLSKADYEKHKVYACEVTHQGLSSPVTKSFNRGEC
heavy 2: B1 heavy 2
light 2: B1 light 2
B6: rCE115/rCE115uPA04//GCH065 (bispecific antibody, human IgG1, kappa, N297A)
heavy 1: B1 heavy 1
light 1: QDGNEEMGGGSGGGSGGGSLSGRSDNHGGGSDVVMTQTPVSMSVSLGGQVSISCRSSQSLVHNNGNTYVSWYIQKPSQSPQLLIYKVSNRFSGISDRFSGSGSGTDFTLKISRVEPDDLGVYYCGQGTQDPYTFGAGTKLELKRTVAAPSVFIFPPSDEQLKSGTASVVCLLNNFYPREAKVQWKVDNALQSGNSQESVTEQDSKDSTYSLSSTLTLSKADYEKHKVYACEVTHQGLSSPVTKSFNRGEC
heavy 2: B1 heavy 2
light 2: B1 light 2
B7: rCE115/GLSuPA27//GCH065 (bispecific antibody, human IgG1, kappa, N297A)
heavy 1: B1 heavy 1
light 1: QDGNEEMGGITQTPYKVSISGTTVILTLSGRSDNHDIVMTQSPLSLPVTPGEPASISCRSSQSLVHSNRNTYLHWYQQKPGQAPRLLIYKVSNRFSGVPDRFSGSGSGTDFTLKISRVEAEDVGVYYCGQGTQVPYTFGQGTKLEIKRTVAAPSVFIFPPSDEQLKSGTASVVCLLNNFYPREAKVQWKVDNALQSGNSQESVTEQDSKDSTYSLSSTLTLSKADYEKHKVYACEVTHQGLSSPVTKSFNRGEC
heavy 2: B1 heavy 2
light 2: B1 light 2
B8: rCE115/GLSuPA20//GCH065 (bispecific antibody, human IgG1, kappa, N297A)
heavy 1: B1 heavy 1
light 1: QDGNEEMGGITQTPYKVSISLSGRSDNHGGGSDIVMTQSPLSLPVTPGEPASISCRSSQSLVHSNRNTYLHWYQQKPGQAPRLLIYKVSNRFSGVPDRFSGSGSGTDFTLKISRVEAEDVGVYYCGQGTQVPYTFGQGTKLEIKRTVAAPSVFIFPPSDEQLKSGTASVVCLLNNFYPREAKVQWKVDNALQSGNSQESVTEQDSKDSTYSLSSTLTLSKADYEKHKVYACEVTHQGLSSPVTKSFNRGEC
heavy 2: B1 heavy 2
light 2: B1 light 2
B9: ANuPA20L/GLS//GCH065 (bispecific antibody, human IgG1, kappa, N297A)
heavy 1: QDGNEEMGGITQTPYKVSISGGGGSGGGGSGGGGSLSGRSDNHGGGSQVQLVESGGGLVQPGRSLRLSCAASGFTFSNAWMHWVRQAPGKGLEWVAQIKDKANGYNAYYAESVKGRFTISRDDSKNSIYLQMNSLKTEDTAVYYCRYVHYTTYAGFSYKFGVDAWGQGTTVTVSSASTKGPSVFPLAPSSKSTSGGTAALGCLVKDYFPEPVTVSWNSGALTSGVHTFPAVLQSSGLYSLSSVVTVPSSSLGTQTYICNVNHKPSNTKVDKKVEPKSCDKTHTCPPCPAPELRGGPKVFLFPPKPKDTLMISRTPEVTCVVVDVSHEDPEVKFNWYVDGVEVHNAKTKPREEQYASTYRVVSVLTVLHQDWLNGKEYKCKVSNKALPAPIEKTISKAKGQPREPQVYTLPPSRKEMTKNQVSLTCLVKGFYPSDIAVEWESNGQPENNYKTTPPYLDSDGSFFLYSKLTVDKSRWQQGNVFSCSVMHEALHNHYTQKSLSLSP
light 1: B1 light 2 with P28S
heavy 2: B1 heavy 2
light 2: B1 light 2
B10: rCE115/rCE115//GCH065 (bispecific antibody, human IgG1, kappa, N297A)
heavy 1: B1 heavy 1
light 1: DVVMTQTPVSMSVSLGGQVSISCRSSQSLVHNNGNTYVSWYIQKPSQSPQLLIYKVSNRFSGISDRFSGSGSGTDFTLKISRVEPDDLGVYYCGQGTQDPYTFGAGTKLELKRTVAAPSVFIFPPSDEQLKSGTASVVCLLNNFYPREAKVQWKVDNALQSGNSQESVTEQDSKDSTYSLSSTLTLSKADYEKHKVYACEVTHQGLSSPVTKSFNRGEC
heavy 2: B1 heavy 2
light 2: B1 light 2

target: CD3 on NFAT-RE-luc2-Jurkat cells (human, UniProt P07766 23-207); assay: cell-based or functional assay
Sequence (P07766 23-207): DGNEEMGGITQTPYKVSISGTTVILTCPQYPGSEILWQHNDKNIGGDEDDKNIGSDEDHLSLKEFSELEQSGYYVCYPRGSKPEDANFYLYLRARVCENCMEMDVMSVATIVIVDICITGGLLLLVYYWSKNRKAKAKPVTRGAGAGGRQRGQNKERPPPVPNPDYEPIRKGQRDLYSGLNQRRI

| increase rate due to the protease treatment (luciferase, uPA-treated / untreated), antibody 0.1 nM [ratio] | increase rate due to the protease treatment (luciferase, uPA-treated / untreated), antibody 1 nM [ratio] | Binder |
| --- | --- | --- |
| 6.4 | 3.1 | B1 |
| 1.1 | 2.4 | B2 |
| 1.3 | 6.3 | B3 |
| 1.2 | 2.4 | B4 |
| 0.9 | 0.6 | B5 |
| 2.7 | 3.8 | B6 |
| 1 | 1.5 | B7 |
| 2.8 | 1.6 | B8 |
| 1 | 1.7 | B9 |
| 0.7 | 0.9 | B10 |
